# Results: the DeepSol protein solubility set
# Assay: soluble on expression in E. coli; label from the status in PepcDB or PDB records
row,Sequence,soluble on expression in E. coli
1,SASEDAALDATGHKKGEPAFGVTIPKGTTYRDSDGKEVPHPCVDRKIGYQGHFDALYGTYNYSVKEPATDLPKLELMAVDGQQVVPQESLCFRLPPDAGEDGEELSRIRIPDDEEFSFLGKPGDIVWYAPQNIPFANGHRPIWAGIGAFDPHHEPKGKDSIPEHLDKNMYFELKDFSGPGDVNVFFKNNSRKEVERIFSSNDEELKTIEYEMGSHGHFNWTFSKPGIYELTWEAYVKNGAFKVKTEPVRQIWLVGSDEEVGLPEGTTTNLNKITKPLDKDATNEPPTDPSEKKKPPRPEKGHSETSSPSALDDSIERAWKLTGTPKTIINDGHMDLALTRPDKEFVTVINREGKKYSSGDVTLAVPDSGGDQGGPLVKTDSWKDRIEAQISGSLPDQAWVLPESQDHKLPWVGFSNEDLPSDALLPDSKMTVSLNKVELPHDGRMISWHNGISGIDLLTDTDDLSKNLEYGLHAHDHQSMLFTKEGAYGLEYSFDITTASGKQESYPLHISYLVGDATIARAKEILAGEKLGGSLKKKPQEKETKKPASVQNKSGKHNKDTVGSESARKRQQLAATSGSDTNGIYSFHDGDVQDEAVTTAAEWQELDT,not soluble
2,MKIAAIYTQSVGPLPDGEIRFENDWSGEIESNVLITGPNGCGKSTLLRAISLLWRAFGHWLGTGTRLNIKDESYTWFYRWDASCAMILDSFSPKSEDQIGLFLGSEAFLVQLKEKYPQVYWLGETVSRTKGTTPETTVFTSSEHFFLPYKNWWSHWSSQYQRLVLKGPSVDMPNLVYLDAEARRWVRPQKDIGSLSPDDSTQAWLATYEVNDNWKGQLESSLFNMKATMPGEYPEMIATLNQFFSGKRIEAEIHPGQRQRVLLDSGNDHSLDALSSGEHQVLIMLFTVQRWLQPGGVVLIDEPDLHLHPSLISPLLASIENIVARKNGQLVMTSHATDIWQRYDNMGLRIDLTDGKDAENGQR,not soluble
3,MNDQELRAYLSQAKTIAVLGAHKDPSRPAHYVPRYLREQGYRVLPVNPRFQGEELFGEEAVASLLDLKEPVDILDVFRPPSALMDHLPEVLALRPGLVWLQSGIRHPEFEKALKEAGIPVVADRCLMVEHKRLFRGPLPL,soluble
4,MGSDKIHHHHHHMKIPRRLEPLLEDGLIDGVVRQLMSGKEAMVFAVRCGDEIRCAKVYKEANKRSFRQAVDYTENRKTKNSRQARAMAKGSKYGRQMQEAAWQSAEVDALYRLAAAGVRVPTPYNFHEGVLLMELVADADGNAAPRLNDVSFTEGEALAHHQTLIREVVRMLCAGVVHGDLSEFNILVGADGPVIIDLPQAVDAAGNNHAQAMLMRDVHNLRGYFGQFAPALLTTRYAEEIWALYEHGSLHPEVALSGQFECEMPPVDLEGVMREIDDAREQEAARLLRLQELS,not soluble
5,MESEQCPVGKIPHIRMDDGAGIEEFYTFGRILGQGSFGMVFEAIDKETGAKWAIKKVNKEKAGSSAMKLLEREVSILKTVNHQHIIHLEQVFESPQKMYLVMELCEDGELKAVMDQRGHFSENETRLIIQSLASAIAYLHNKDIVHRDLKLENIMVKSSFIDDNNEMNLNIKVTDFGLSVQKHGSRSEGMMQTTCGTPIYMAPEVINAHDYSQQCDIWSIGVIMFILLCGEPPFLANSEEKLYELIKKGELRFENPVWESVSDSAKNTLKQLMKVDPAHRITAKELLDNQWLTGNTLSSARPTNVLEMMKEWKNNPESDEETNTDEETEQSAVYSPSANTAKQPTNAAKKPAAESVGMTSSNSSSSKLLSAESKAEPEKSSETVGHASVAKTTLKSTTLFRGKKRL,soluble
6,MAQLYYRYGTMNSGKTIEILKVAYNYEEQGKGVVIMTSALDTRDGVGYVSSRIGMKRPALAIEETTDIFGYIRDLPEKPYCVLVDEAQFLKRHHVYDLARVVDELDIPVMAFGLKNDFRNELFEGSKYLLLLADKIDEIKTICQYCKKKATMVLRTQDGLPVYDGEQIQIGGNETYISVCRKHYFAPMITSNKEQNYDNLEHHHHHH,soluble
7,MKVTVIGCYGGFPAANEATSGYLFQSGDYSLLVDCGSAVLSKLFGYVPAEKLDAVVLSHYHHDHIADIGPLQFAKQVGSFLGKGEHTLPIYGHDADIEQFQKLTYKTHTKGIAYQPDQPLTAGPFTITFLKTIHPVTCYAMRITDGSHTVVYTADSSYQDSFIPFSKDADLLISECNFYADQDGTSAGHMNSLEAGRIAKEAGAGELLLTHLPHFGVHDNLRKEAKTVFNGEVNIAKSGFVWEG,soluble
8,METSPVFIDYVTIRQEYFGGGLPVLNDGKVLKVDADGEIEYSTDVRCIIEGSYDSRVQVRCDGNTVEFTGNISRYGRRDNLFGYDWPTTIARINDLLSLLGLPPFTSGKLYKFADTGWSWSGARVSRIDLTCNYSTGSKESMHAVLCHMAGQHVGRQKGSLSPDSGTVEYGRGSKYVYGKLYAKYQELEKHRSKKSGSHVSDDVIDYCKTEGILREEFTLKSRFLLQNNLAYLGAITQDNLNQILEHHHHHH,not soluble
9,MGSDKIHHHHHHMLKSLLLTPINLAVKPFPAAKARLDAAKIVLKRWVKLRHFISDLLHAKSFMFWSAQDTSYAKLSSELIFQYHKLEKGLCMAGPRRFFGRDPVIATCRLVKRWSGAGLPSNDPVFLGAIETLRAYRDRLAVTPPPPEHATQIWSLLNECLSLAPPTPSLTTPRPYQPSAGTAATFDLLCAQRRSVRAYTTDVVPISLIHEAIATAQLSPSACNRQPWRLHIYRDPQRTKHLLELQNGNAGFGHQLTTLLVVCADSRTFFDATERNEPYVDAGLFVMSLLLALQSRGLASCCLNWCVSPDTDQKGHDRGDIPSNEKIIMYLAVGYADAQAMVPRSPRRNLETVVTLHEQ,not soluble
10,SSSGLNSEKVAALIQKLNSDPQFVLAQNVGTTHDLLDICLKRATVQRAQHVFQHAVPQEGKPITNQKSSGRCWIFSCLNVMRLPFMKKLNIEEFEFSQSYLFFWDKVERCYFFLSAFVDTAQRKEPEDGRLVQFLLMNPANDGGQWDMLVNIVEKYGVIPKKCFPESYTTEATRRMNDILNHKMREFCIRLRNLVHSGATKGEISATQDVMMEEIFRVVCICLGNPPETFTWEYRDKDKNYQKIGPITPLEFYREHVKPLFNMEDKICLVNDPRPQHKHNKLYTVEYLSNMVGGRKTLYNNQPIDFLKKMVAASIKDGEAVWFGCDVGKHFNSKLGLSDMNLYDHELVFGVSLKNMNKAERLTFGESLMTHAMTFTAVSEKDDQDGAFTKWRVENSWGEDHGHKGYLCMTDEWFSEYVYEVVVDRKHVPEEVLAVLEQEPIILPAWDPMGALA,soluble
11,GGAFTWDTDFNISFNRNKLTKLELQKVYYDAKTADVVNDYVVRNEPGRALGGFYGYISDGVDPETGELMYRDLSGDGKISTSDRTYIGDPNPDFTYGLTNTFSWKGFNLSVFIQGSYGNDIFNASRIETEGMYDGKNQSTKVLNRWKIPGQITNVPKANFKLLNSTYFIEDGSYLRLKDVSLSYNFKGKLLQKWGITRLQPYFTATNLLTWTSYSGMDPEVNQWGNSGTVQGIDWGTYPHSRSYVFGINVEF,not soluble
12,MGSDKIHHHHHHMKKHLNTLFVTTQGAYLSKEGETVVVKVDREVRLRVPVHTLGGIVCFGNIGCSPYLMGFCAEKSVCISFLSERGRFLARVQGPVSGNVLLRREQYRRADDPEFSAIMARYVLTGKIANCRTVLQRALRDHQEKINADSVRQAVDHLGRCLTSLGREKSLDNLRGIEGDAAHRYFSVFNELILMQKDAFIFDERNRRPPLDPMNCLLSFAYTLLVHDIRSALEAVGLDPAVGYLHRDRPGRPGLALDIMEEFRPFIVDRLVLSLVNLRKVQAKGFKKSESGAVQMDDDTRRTLLVSYQERKQEEMLHPFLGERTTFGLLFHVQAMLLARYLRGDLDGYPPFIYR,not soluble
13,MSHPWRSRGEKRTIMFGYTPSDTILKYLKDMRDLINRAILNAYSIARSNDDSLPSPITLRRSLKDYYDNNVAYAKHHINPVCRTAIAMLRSYKKNNGRLKVVKAKRLAMRIDSELAKIEDNRLRITIRPNVYEYVDIVDRNKKYSEYSKYPISEVLLTDNRVYITFITGSDDKPVIANNIIGFDLNFKSVDYTVIKDNRIAYVDSIDTYDIAKTQRDYERKRRKIQKHIRNPAKRIRKLKEAKHRQRNIVRDKLQKLTTNIVKNNEDKTFVFEDLTNIKKKGKKHKDHKRDGQSSKRFRTDINRWPYRLFQMFVEYKSKNETLYVDPEGTSSECPVCGGILEHPIWKMSKCDNCGATFDRDRLSSLSIAVRGLHLCGTPFSVSGSASWDSMKDNYLYRLEHHHHHH,soluble
